This note sets out measurements from the supplement of paper PMC9112550, “Optimization of the antimicrobial peptide Bac7 by deep mutational scanning” (BMC Biology, 2022).

The test system of the data set is Escherichia coli TOP10. As to the kind of experiment: shrunken log2 fold change of peptide-encoding DNA abundance (4.5 h post-induction vs induction); higher = less antimicrobial activity (less host growth inhibition). To be noted: time post-induction: 4.5 h; library: site-saturation at positions 5, 18, 19, 20.
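Further: peptides expressed intracellularly from a pBAD plasmid library in pooled LB shake-flask culture, induced with 0.3% L-arabinose, DNA abundance read by NGS, three biological replicates, DESeq2 with apeglm shrinkage.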

As for RRIRSRPPRLPRPRPRPNDAPRP, the “shrunken log2 fold change” value was 0.0331.

On to RRIRSRPPRLPRPRPRPQCVPRP, for which the “shrunken log2 fold change” value was -0.204.

As to RRIRNRPPRLPRPRPRPDTCPRP, the “shrunken log2 fold change” value is -0.279.

For RRIRPRPPRLPRPRPRPLKFPRP, the “shrunken log2 fold change” value was -0.368.

As for RRIRLRPPRLPRPRPRPPEQPRP, the “shrunken log2 fold change” value is -0.0138.

Turning to RRIRSRPPRLPRPRPRPGLWPRP, the “shrunken log2 fold change” value was 0.266.

For RRIRNRPPRLPRPRPRPCNQPRP, the “shrunken log2 fold change” value is 0.0223.

Turning to RRIRVRPPRLPRPRPRPLIDPRP, the “shrunken log2 fold change” value was 0.119.

In the case of RRIRRRPPRLPRPRPRPVLTPRP, the “shrunken log2 fold change” value worked out at 0.386.

RRIRLRPPRLPRPRPRPAKVPRP: the “shrunken log2 fold change” value is -0.0169.

With RRIRQRPPRLPRPRPRPQSIPRP, the “shrunken log2 fold change” value was -0.0322.

In the case of RRIRLRPPRLPRPRPRPWPLPRP, the “shrunken log2 fold change” value was -0.039.

RRIRGRPPRLPRPRPRPSKVPRP: the “shrunken log2 fold change” value is -0.116.

RRIRGRPPRLPRPRPRPSRNPRP: the “shrunken log2 fold change” value stood at 0.0365.

Regarding RRIRWRPPRLPRPRPRPAKKPRP, the “shrunken log2 fold change” value was 0.0808.

Regarding RRIRCRPPRLPRPRPRPIRAPRP, the “shrunken log2 fold change” value is -0.0291.

As for RRIRWRPPRLPRPRPRPQDDPRP, the “shrunken log2 fold change” value worked out at 0.0379.

As to RRIRARPPRLPRPRPRPSYFPRP, the “shrunken log2 fold change” value is -0.555.

With RRIRKRPPRLPRPRPRPKYGPRP, the “shrunken log2 fold change” value is -0.206.

On to RRIRMRPPRLPRPRPRPQTYPRP, for which the “shrunken log2 fold change” value was determined as 0.144.

On to RRIRERPPRLPRPRPRPYRQPRP, for which the “shrunken log2 fold change” value is -0.264.

Turning to RRIRHRPPRLPRPRPRPILPPRP, the “shrunken log2 fold change” value came out at 0.0147.

For RRIRVRPPRLPRPRPRPRMYPRP, the “shrunken log2 fold change” value was -0.882.

As to RRIRERPPRLPRPRPRPDMIPRP, the “shrunken log2 fold change” value worked out at 0.0157.

As for RRIRFRPPRLPRPRPRPGSYPRP, the “shrunken log2 fold change” value is -0.0318.

For the sequence RRIRERPPRLPRPRPRPHNQPRP, the “shrunken log2 fold change” value is -0.325.

Take RRIRLRPPRLPRPRPRPKIEPRP: the “shrunken log2 fold change” value amounted to 0.0278.

As for RRIRDRPPRLPRPRPRPIRYPRP, the “shrunken log2 fold change” value was -0.103.

RRIRRRPPRLPRPRPRPHKKPRP: the “shrunken log2 fold change” value was found to be 0.228.

For the sequence RRIRCRPPRLPRPRPRPVYFPRP, the “shrunken log2 fold change” value is -0.711.

Consider RRIRCRPPRLPRPRPRPACLPRP, for which the “shrunken log2 fold change” value was -0.111.

Take RRIRWRPPRLPRPRPRPATYPRP: the “shrunken log2 fold change” value turned out to be 0.0311.

Consider RRIRARPPRLPRPRPRPFQEPRP, for which the “shrunken log2 fold change” value is 0.127.

Take RRIRIRPPRLPRPRPRPFDTPRP: the “shrunken log2 fold change” value was 0.0514.

With RRIRERPPRLPRPRPRPSRIPRP, the “shrunken log2 fold change” value is -0.234.

RRIRIRPPRLPRPRPRPIHPPRP: the “shrunken log2 fold change” value is -0.208.

Regarding RRIRIRPPRLPRPRPRPYTDPRP, the “shrunken log2 fold change” value was -0.0335.

As for RRIRCRPPRLPRPRPRPKKQPRP, the “shrunken log2 fold change” value stood at 0.155.

In the case of RRIRIRPPRLPRPRPRPVSVPRP, the “shrunken log2 fold change” value is -0.191.

Take RRIRYRPPRLPRPRPRPYQEPRP: the “shrunken log2 fold change” value is -0.00233.

Turning to RRIRYRPPRLPRPRPRPNLKPRP, the “shrunken log2 fold change” value is -0.732.

For RRIRCRPPRLPRPRPRPPGLPRP, the “shrunken log2 fold change” value came to 0.72.

On to RRIRYRPPRLPRPRPRPGQQPRP, for which the “shrunken log2 fold change” value came to 0.0541.

In the case of RRIRMRPPRLPRPRPRPKIMPRP, the “shrunken log2 fold change” value was -0.208.

Consider RRIRFRPPRLPRPRPRPSRVPRP, for which the “shrunken log2 fold change” value amounted to 0.0914.

Consider RRIRHRPPRLPRPRPRPRWKPRP, for which the “shrunken log2 fold change” value came to 0.00489.

Take RRIRFRPPRLPRPRPRPKWHPRP: the “shrunken log2 fold change” value is -0.0786.

For the sequence RRIRTRPPRLPRPRPRPSQQPRP, the “shrunken log2 fold change” value is 0.117.

In the case of RRIRYRPPRLPRPRPRPHGIPRP, the “shrunken log2 fold change” value is 0.0191.

Turning to RRIRQRPPRLPRPRPRPQMKPRP, the “shrunken log2 fold change” value is -0.264.

Turning to RRIRQRPPRLPRPRPRPKWIPRP, the “shrunken log2 fold change” value is -0.0524.

In the case of RRIRSRPPRLPRPRPRPAQHPRP, the “shrunken log2 fold change” value is 0.0967.

As to RRIRQRPPRLPRPRPRPAKWPRP, the “shrunken log2 fold change” value was -0.0192.

For the sequence RRIRMRPPRLPRPRPRPVIIPRP, the “shrunken log2 fold change” value is -0.331.

Regarding RRIRNRPPRLPRPRPRPTCQPRP, the “shrunken log2 fold change” value stood at 0.0956.

Consider RRIRYRPPRLPRPRPRPEPPPRP, for which the “shrunken log2 fold change” value came out at 0.49.

As for RRIRMRPPRLPRPRPRPKTLPRP, the “shrunken log2 fold change” value stood at 0.687.

Turning to RRIRSRPPRLPRPRPRPANQPRP, the “shrunken log2 fold change” value was -0.116.

For the sequence RRIRTRPPRLPRPRPRPADDPRP, the “shrunken log2 fold change” value amounted to 0.165.

With RRIRCRPPRLPRPRPRPYSKPRP, the “shrunken log2 fold change” value is -0.192.

Consider RRIRMRPPRLPRPRPRPIDFPRP, for which the “shrunken log2 fold change” value is -0.00165.

Turning to RRIRDRPPRLPRPRPRPLPTPRP, the “shrunken log2 fold change” value was 0.358.

Regarding RRIRHRPPRLPRPRPRPLHKPRP, the “shrunken log2 fold change” value is -0.294.

Regarding RRIRFRPPRLPRPRPRPDWAPRP, the “shrunken log2 fold change” value amounted to 0.0526.

Take RRIRVRPPRLPRPRPRPDVWPRP: the “shrunken log2 fold change” value is -0.0858.

In the case of RRIRNRPPRLPRPRPRPIPSPRP, the “shrunken log2 fold change” value came to 0.0499.

As to RRIRWRPPRLPRPRPRPSYVPRP, the “shrunken log2 fold change” value is -0.651.

On to RRIRVRPPRLPRPRPRPRKWPRP, for which the “shrunken log2 fold change” value was 0.474.

Regarding RRIRKRPPRLPRPRPRPHSRPRP, the “shrunken log2 fold change” value came to 0.147.

Take RRIRGRPPRLPRPRPRPHMAPRP: the “shrunken log2 fold change” value turned out to be 0.271.

Turning to RRIRMRPPRLPRPRPRPYHDPRP, the “shrunken log2 fold change” value was -0.256.

Regarding RRIRMRPPRLPRPRPRPRCEPRP, the “shrunken log2 fold change” value came to 0.704.

As to RRIRARPPRLPRPRPRPNWMPRP, the “shrunken log2 fold change” value turned out to be 0.0981.

On to RRIRQRPPRLPRPRPRPRYQPRP, for which the “shrunken log2 fold change” value was -0.0107.

RRIRSRPPRLPRPRPRPDNRPRP: the “shrunken log2 fold change” value was -0.00987.

Regarding RRIRFRPPRLPRPRPRPPWCPRP, the “shrunken log2 fold change” value is 0.0236.

Regarding RRIRARPPRLPRPRPRPTLQPRP, the “shrunken log2 fold change” value is 0.694.

For RRIRKRPPRLPRPRPRPMCMPRP, the “shrunken log2 fold change” value is -0.169.

Take RRIRIRPPRLPRPRPRPPICPRP: the “shrunken log2 fold change” value is -0.132.

Turning to RRIRERPPRLPRPRPRPHQEPRP, the “shrunken log2 fold change” value is 0.0187.

Consider RRIRDRPPRLPRPRPRPPLRPRP, for which the “shrunken log2 fold change” value came out at 0.271.

For the sequence RRIRHRPPRLPRPRPRPPTMPRP, the “shrunken log2 fold change” value is -0.354.

Regarding RRIRYRPPRLPRPRPRPTSDPRP, the “shrunken log2 fold change” value was -0.459.

RRIRVRPPRLPRPRPRPYKNPRP: the “shrunken log2 fold change” value is -0.848.

On to RRIRTRPPRLPRPRPRPSWIPRP, for which the “shrunken log2 fold change” value was -0.525.

In the case of RRIRFRPPRLPRPRPRPHFNPRP, the “shrunken log2 fold change” value was -0.692.

Turning to RRIRVRPPRLPRPRPRPGGYPRP, the “shrunken log2 fold change” value turned out to be 0.0682.

In the case of RRIRGRPPRLPRPRPRPGQDPRP, the “shrunken log2 fold change” value stood at 0.605.

Turning to RRIRKRPPRLPRPRPRPWPMPRP, the “shrunken log2 fold change” value was 0.915.

Take RRIRARPPRLPRPRPRPFYKPRP: the “shrunken log2 fold change” value was -0.009.

Turning to RRIRQRPPRLPRPRPRPIMLPRP, the “shrunken log2 fold change” value was -0.433.

Regarding RRIRERPPRLPRPRPRPNIVPRP, the “shrunken log2 fold change” value is -0.232.

On to RRIRNRPPRLPRPRPRPVGDPRP, for which the “shrunken log2 fold change” value worked out at 0.0156.

As to RRIRTRPPRLPRPRPRPRMIPRP, the “shrunken log2 fold change” value came out at 0.113.

On to RRIRARPPRLPRPRPRPHATPRP, for which the “shrunken log2 fold change” value amounted to 1.01.

As to RRIRSRPPRLPRPRPRPINHPRP, the “shrunken log2 fold change” value is -0.662.

For the sequence RRIRIRPPRLPRPRPRPWFFPRP, the “shrunken log2 fold change” value was -0.198.

As for RRIRLRPPRLPRPRPRPVRGPRP, the “shrunken log2 fold change” value is 0.682.

Consider RRIRTRPPRLPRPRPRPYCRPRP, for which the “shrunken log2 fold change” value was -0.149.

Regarding RRIRCRPPRLPRPRPRPFDCPRP, the “shrunken log2 fold change” value is -0.95.

Turning to RRIRLRPPRLPRPRPRPLNWPRP, the “shrunken log2 fold change” value was -0.0552.

For the sequence RRIRDRPPRLPRPRPRPAQSPRP, the “shrunken log2 fold change” value was 0.216.

As to RRIRQRPPRLPRPRPRPAAVPRP, the “shrunken log2 fold change” value was -0.0726.

On to RRIRFRPPRLPRPRPRPNKVPRP, for which the “shrunken log2 fold change” value is -0.92.

In the case of RRIRERPPRLPRPRPRPGIFPRP, the “shrunken log2 fold change” value turned out to be 0.099.

RRIRIRPPRLPRPRPRPVKIPRP: the “shrunken log2 fold change” value came to 0.0113.

Take RRIRHRPPRLPRPRPRPPMEPRP: the “shrunken log2 fold change” value was -0.0615.

As for RRIRDRPPRLPRPRPRPDFFPRP, the “shrunken log2 fold change” value worked out at 0.195.

On to RRIRHRPPRLPRPRPRPFCFPRP, for which the “shrunken log2 fold change” value was -0.215.

Consider RRIRHRPPRLPRPRPRPATTPRP, for which the “shrunken log2 fold change” value is -0.101.

Turning to RRIRSRPPRLPRPRPRPQWFPRP, the “shrunken log2 fold change” value is -0.241.

For RRIRNRPPRLPRPRPRPFHFPRP, the “shrunken log2 fold change” value is -0.359.

With RRIRCRPPRLPRPRPRPKNNPRP, the “shrunken log2 fold change” value is -0.188.

In the case of RRIRVRPPRLPRPRPRPTMRPRP, the “shrunken log2 fold change” value is 0.799.

As to RRIRDRPPRLPRPRPRPNNDPRP, the “shrunken log2 fold change” value was 0.132.

In the case of RRIRHRPPRLPRPRPRPKSHPRP, the “shrunken log2 fold change” value came to 0.77.

As to RRIRERPPRLPRPRPRPFVGPRP, the “shrunken log2 fold change” value is -0.143.

Turning to RRIRFRPPRLPRPRPRPCPWPRP, the “shrunken log2 fold change” value was -0.0658.

As to RRIRMRPPRLPRPRPRPQGQPRP, the “shrunken log2 fold change” value came to 0.253.

Consider RRIRCRPPRLPRPRPRPMWHPRP, for which the “shrunken log2 fold change” value was -0.147.

Take RRIRDRPPRLPRPRPRPSNWPRP: the “shrunken log2 fold change” value is -0.136.

For RRIRGRPPRLPRPRPRPQPWPRP, the “shrunken log2 fold change” value was found to be 0.68.

For RRIRVRPPRLPRPRPRPDHIPRP, the “shrunken log2 fold change” value was -0.206.

RRIRPRPPRLPRPRPRPSNYPRP: the “shrunken log2 fold change” value was -0.733.

On to RRIRTRPPRLPRPRPRPMKRPRP, for which the “shrunken log2 fold change” value came to 0.298.
